T1: fibrinogen (Homo sapiens, UniProt P02671+P02675+P02679)
T1 sequence (P02671 20-629 limits assumed): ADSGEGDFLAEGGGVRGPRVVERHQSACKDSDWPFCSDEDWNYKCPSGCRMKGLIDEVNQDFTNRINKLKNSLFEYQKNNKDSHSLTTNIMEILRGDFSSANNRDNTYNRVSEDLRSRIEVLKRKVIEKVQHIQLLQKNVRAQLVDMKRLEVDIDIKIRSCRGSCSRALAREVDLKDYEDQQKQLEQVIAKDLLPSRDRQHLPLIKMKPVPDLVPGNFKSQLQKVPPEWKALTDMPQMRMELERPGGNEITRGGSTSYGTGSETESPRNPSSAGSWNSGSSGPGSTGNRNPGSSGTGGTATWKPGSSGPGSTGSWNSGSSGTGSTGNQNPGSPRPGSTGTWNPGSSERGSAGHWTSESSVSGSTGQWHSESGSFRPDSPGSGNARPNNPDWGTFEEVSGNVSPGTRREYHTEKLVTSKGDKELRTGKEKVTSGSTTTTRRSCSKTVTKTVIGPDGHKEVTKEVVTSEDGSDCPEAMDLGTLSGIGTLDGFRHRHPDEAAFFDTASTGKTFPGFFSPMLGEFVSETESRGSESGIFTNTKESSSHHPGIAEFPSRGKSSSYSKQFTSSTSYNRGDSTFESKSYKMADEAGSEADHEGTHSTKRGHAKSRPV
T1 sequence (P02675 31-491): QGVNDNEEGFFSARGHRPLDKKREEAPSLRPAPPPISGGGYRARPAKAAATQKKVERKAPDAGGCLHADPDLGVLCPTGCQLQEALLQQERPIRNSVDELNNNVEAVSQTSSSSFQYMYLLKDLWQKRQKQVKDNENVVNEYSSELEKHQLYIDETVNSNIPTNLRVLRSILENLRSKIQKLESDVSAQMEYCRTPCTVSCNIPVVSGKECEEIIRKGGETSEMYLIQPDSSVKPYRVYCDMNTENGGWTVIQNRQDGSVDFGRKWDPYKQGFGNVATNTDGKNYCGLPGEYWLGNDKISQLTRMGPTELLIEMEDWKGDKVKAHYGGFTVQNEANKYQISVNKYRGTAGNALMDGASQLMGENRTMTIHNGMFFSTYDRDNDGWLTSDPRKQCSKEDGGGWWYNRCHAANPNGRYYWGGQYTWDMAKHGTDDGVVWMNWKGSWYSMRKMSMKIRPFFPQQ
T1 sequence (P02679 27-453): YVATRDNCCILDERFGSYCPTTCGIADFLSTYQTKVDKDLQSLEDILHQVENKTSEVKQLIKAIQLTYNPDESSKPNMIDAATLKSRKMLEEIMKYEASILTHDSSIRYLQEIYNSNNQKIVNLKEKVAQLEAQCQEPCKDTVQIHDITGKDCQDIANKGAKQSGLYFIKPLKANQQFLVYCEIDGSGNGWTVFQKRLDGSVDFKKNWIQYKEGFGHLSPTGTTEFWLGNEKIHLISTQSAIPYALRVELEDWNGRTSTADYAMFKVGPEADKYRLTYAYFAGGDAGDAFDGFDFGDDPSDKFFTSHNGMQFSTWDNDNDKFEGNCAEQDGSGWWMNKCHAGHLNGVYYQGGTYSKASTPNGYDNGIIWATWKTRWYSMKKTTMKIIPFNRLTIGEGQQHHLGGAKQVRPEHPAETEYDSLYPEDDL

B1: PLPs: ultra-low crosslinked pNIPAm-AAc microgels conjugated to fibrin-specific sdFv H6 (conjugate)
VH: QVQLLESGGGLVQPGGSLRLSCAASGDRFTHNDMGWVRQAPGKGLEWVSTIPTTDGSTYYADSVKGRFTISRDNSKSTLYLQMNSLRAEDTAVYYCATGYMWKAPAYVKYWGQGTLVTVSSAAAEQKLISEEDLNSAAHYTDIG
B2: H6: fibrin-specific human sdFv clone from phage biopanning, SEQ ID NO: 1 (protein)
VHH: B1 VH

Columns and labels:
femoral vein injury = experiment: Rat femoral vessel traumatic injury model; assay type: in vivo
Text: To test the efficacy of PLPs in hemostasis, a well-established rat femoral vessel traumatic injury model was used^13-15. This model results in an easily visualized, continuous stream of blood flowing from the injury site. All protocols were approved by the Georgia Institute of Technology IACUC. Adult Sprague-Dawley male rats (200-250 g) were anesthetized with 5% isoflurane. Following anesthesia, an incision was made on the right hindlimb to expose the femoral vessels. A portion of the femoral vein was isolated from the surrounding connective tissue by placing a small piece of foil between the vessel and the underlying tissue. Following isolation of the vessel, the cavity will be irrigated with 0.9% irrigation fluid at 37° C. Animals were then administered 500 μL of saline (vehicle), purified human factor VIIa ([…], 100 μg/kg the current standard of care, purchased from Innovative Research), PLPs (20 mg/mL) or S11-ULC microgels (20 mg/mL) via tail vein injection using a 24 gauge catheter. Six (6) animals were tested per condition. Following a 5 minute circulation time, injury was induced to the right femoral vein by piercing the vein with a 22 gauge needle. A gauze was lightly placed below the injury site to collect blood, allowing for better visualization of the injury site as well as measurement of total blood loss. Gauze were changed every ten seconds for the first 30 seconds following injury and then every 30 s until bleeding ceased. Bleeding time was defined as the time required for bleeding to cease for a minimum of 10 s. Following cessation of bleeding, animals were euthanized with carbon dioxide. Following cessation of bleeding, animals were euthanized and organs separated, fixed with 10% formalin, paraffin embedded and 5 μm sections were produced using a Microm […] Microtome (Thermo Scientific). Co-localization of PLPs were characterized through immunofluorescence staining for the MYC-tag encoded on the sdFvs and through Martius Scarlet Blue (MSB) staining for fibrin in adjacent serial sections. For MYC-tag staining, samples were counter stained with Hoescht (Invitrogen) to visualize nuclei. All statistical analyses for bleeding time studies were performed with Prism software program (GraphPad, San Diego Calif.). Bleeding and blood weight data were statistically analyzed using repeated measures analysis of variance using the Tukey test at a 95% confidence interval.

fibrinogen = biological target: T1, fibrinogen; experiment: ELISAs of H6 binding to fibrinogen in various states of unfolding
Protocol: Characterization of H6 binding to fibrin was determined through a series of experiments designed to test the ability of H6 to bind fibrinogen in various states of unfolding.
In the first experiment ELISAs, as described previously, were performed comparing the ability of H6 to bind fibrinogen that was either passively adsorbed to a glass surface or immobilized to a glass surface, the assumption being that fibrinogen exists in a more unfolded state when adsorbed in comparison to when its immobilized on a surface.
This experiment was repeated comparing the ability of H6 to bind fibrinogen passively adsorbed to a plastic surface after having been heat-denatured, or not, with the assumption being that heat-denatured fibrinogen exists in a more unfolded state than that of fibrinogen that was not heat-denatured.
Finally, this experiment was repeated to compare the ability of H6 to bind fibrinogen that was passively adsorbed after no treatment, heat denaturing, heat denaturing plus reduction of sulfide bonds, or just reduction of sulfide bonds. The assumption is that reduction of sulfide bonds within a fibrinogen molecule in addition to heat denaturing result in an even greater extent of molecular unfolding than compared to heat denaturing alone.

| Molecule | total blood loss (femoral vein injury; compared to S11-ULC microgels, p<0.05) | fibrin staining in vessels (femoral vein injury; postmortem) | localization at wound (MYC-tag staining, MSB fibrin staining) (femoral vein injury; postmortem wound tissue) | blood loss over time (bleeding dynamics) (femoral vein injury; rat) | bleeding time compared to vehicle only (femoral vein injury; rat, tail vein injection) | Bleeding time (femoral vein injury; rat, tail vein injection, 5 minute circulation time) | binding to fibrinogen on glass surface (fibrinogen; adsorbed and immobilized fibrinogen) | binding to immobilized versus adsorbed fibrinogen (fibrinogen; glass surface) | binding to fibrinogen adsorbed to plastic surface (fibrinogen; heat-denatured or not) | binding to fibrinogen versus degree of unfolding (fibrinogen; no treatment, heat denaturing, reduction of sulfide bonds, or both) | binding to heat-denatured versus un-denatured fibrinogen (fibrinogen; plastic surface) |
| --- | --- | --- | --- | --- | --- | --- | --- | --- | --- | --- | --- |
| B1 | significantly less | higher levels of fibrin staining | co-localization of PLPs with fibrin clots | slowest blood loss over time | significantly decreased | 117 ± 16 s |  |  |  |  |  |
| B2 |  |  |  |  |  |  | weak | dose-dependent decrease in binding | weak binding | positively correlated to the degree of unfolding | dose-dependent enhanced ability |

Source: patent US11419948B2, “Functionalized microgels with fibrin binding elements” (Georgia Tech Research Corporation, priority 2013, dated 2022)
